# Experimental data taken from paper PMC7834092.
# Target: Eno_(N-Strep), N-terminally Strep-tagged enolase encoded at its native locus (Bacillus subtilis), P37869
# Test: pull-down
# Conditions: remark: other sources report otherwise
# Eno_(N-Strep), N-terminally Strep-tagged enolase encoded at its native locus (Bacillus subtilis), P37869, sequence (P37869 whole entry): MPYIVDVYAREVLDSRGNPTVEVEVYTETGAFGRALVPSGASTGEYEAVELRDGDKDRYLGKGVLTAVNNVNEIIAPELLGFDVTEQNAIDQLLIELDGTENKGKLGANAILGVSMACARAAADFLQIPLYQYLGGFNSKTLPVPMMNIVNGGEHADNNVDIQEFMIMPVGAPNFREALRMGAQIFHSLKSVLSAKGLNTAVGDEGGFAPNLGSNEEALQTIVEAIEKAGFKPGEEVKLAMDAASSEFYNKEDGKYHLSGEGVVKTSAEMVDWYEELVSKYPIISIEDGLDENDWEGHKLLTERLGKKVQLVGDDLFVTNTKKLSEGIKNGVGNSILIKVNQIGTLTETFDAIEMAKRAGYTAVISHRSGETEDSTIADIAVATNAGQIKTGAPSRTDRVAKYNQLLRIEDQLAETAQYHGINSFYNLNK
binder,measurement,value
"RNase Y (native) of B. subtilis, O31774 1-520 (enzyme) MTPIMMVLISILLILLGLVVGYFVRKTIAEAKIAGARGAAEQILEDAKRDAEALKKEALLEAKDEIHKLRIDAEQEVRERRNELQKQENRLLQKEENLDRKHEGIDKREAMLEKKDHSLNERQQHIEEMESKVDEMIRMQQSELERISSLTRDEAKQIILERVENELSHDIAIMTKETENRAKEEADKKAKNILSLALQRCAADHVAETTVSVVNLPNDEMKGRIIGREGRNIRTLETLTGIDLIIDDTPEAVILSGFDPIRRETARIALDKLVQDGRIHPARIEEMVEKSRREVDDYIREMGEQTTFEVGVHGLHPDLIKILGRLKFRTSYGQNVLKHSMEVAFLAGLMASELGEDAKLAKRAGLLHDIGKAIDHEVEGSHVEIGVELATKYKEHPVVINSIASHHGDEEPTSIIAVLVAAADALSAARPGARSETLENYIRRLEKLEEISESYEGVEKSFAIQAGREVRIMVKPDSINDLEAHRLARDIRKRIEDELDYPGHIKVTVIRETRAVEYAK",less RNase Y co-eluted after RNase A treatment of the extract,20 to 30%
